Data published in patent publication US11844843 (DYNE THERAPEUTICS, dated 2023).

Experiments:
[1] = molecular target: T1, recombinant human TfR1 (transferrin receptor protein 1) (human, UniProt P02786 89-760); assay: Table 14, unconjugated Fab, d0; method not named (values equal ELISA row of Table 13)
T1 construct: Recombinant protein in SPR and ELISA; they were assigned to this molecule; also called hTfR1; huTfR1

[2] = molecular target: T2, recombinant cynomolgus monkey (Macaca fascicularis) TfR1 (cynomolgus monkey (Macaca fascicularis), UniProt Q5RDH6 87-760 (Pongo abelii entry), limits assumed); assay: as above
T2 construct: Recombinant protein; also called cTfR1; cyTfR1
T2 chain: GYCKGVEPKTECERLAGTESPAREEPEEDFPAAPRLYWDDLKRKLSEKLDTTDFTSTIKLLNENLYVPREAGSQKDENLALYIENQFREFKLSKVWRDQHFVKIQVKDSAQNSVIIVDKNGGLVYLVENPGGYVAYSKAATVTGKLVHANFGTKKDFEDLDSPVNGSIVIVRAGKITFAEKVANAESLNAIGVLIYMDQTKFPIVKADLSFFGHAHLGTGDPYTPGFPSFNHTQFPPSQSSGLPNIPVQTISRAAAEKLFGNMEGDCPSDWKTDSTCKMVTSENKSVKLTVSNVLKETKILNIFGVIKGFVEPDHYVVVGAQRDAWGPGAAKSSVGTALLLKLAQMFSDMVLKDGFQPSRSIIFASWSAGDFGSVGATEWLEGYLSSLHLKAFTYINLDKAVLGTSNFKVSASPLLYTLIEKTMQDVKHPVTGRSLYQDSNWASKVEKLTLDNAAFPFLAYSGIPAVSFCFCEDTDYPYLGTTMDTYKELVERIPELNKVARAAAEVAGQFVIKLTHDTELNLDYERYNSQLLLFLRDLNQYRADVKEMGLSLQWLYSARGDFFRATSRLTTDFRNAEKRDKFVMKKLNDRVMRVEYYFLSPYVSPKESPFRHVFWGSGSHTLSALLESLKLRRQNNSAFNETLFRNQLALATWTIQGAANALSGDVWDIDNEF

[3] = molecular target: T1, recombinant human TfR1 (transferrin …); assay: Biacore, d25; TfR1 species not stated
[4] = molecular target: T1, recombinant human TfR1 (transferrin …); assay: kinetic analysis (Biacore), Table 7; TfR1 species not stated
[5] = molecular target: T1, recombinant human TfR1 (transferrin …); assay: ELISA, recombinant TfR1 coated, unconjugated Fab (row 'Fab binding affinity ELISA')
[6] = molecular target: T2, recombinant cynomolgus monkey (Macaca …); assay: as above
[7] = molecular target: T1, recombinant human TfR1 (transferrin …); assay: Table 14, unconjugated Fab, d9 (after 9 days at 40 C); method not named
[8] = molecular target: T2, recombinant cynomolgus monkey (Macaca …); assay: as above
[9] = molecular target: T1, recombinant human TfR1 (transferrin …); assay: ELISA on plate-coated recombinant hTfR1, fluorescent anti-(H+L) IgG-A488 detection, % normalized RFUs
Protocol: (§1) To measure binding of humanized anti-TfR antibodies to TfR1, ELISAs were conducted. High binding, black, flat bottom, 96 well plates (Corning #3925) were first coated with 100 μL/well of recombinant huTfR1 at 1 μg/mL in PBS and incubated at 4° C. overnight. Wells were emptied and residual liquid was removed. Blocking was conducted by adding 200 μL of 1% BSA (w/w) in PBS to each well. Blocking was allowed to proceed for 2 hours at room temperature on a shaker at 30) rpm. After blocking, liquid was removed and wells were washed three times with 300 μL of TBST. Anti-TfR1 antibodies were then added in 0.5% BSA/TBST in triplicate in an 8 point serial dilution (dilution range 5 μg/mL-5 ng/mL). A positive control and isotype controls were also included on the ELISA plate. The plate was incubated at room temperature on an orbital shaker for 60 minutes at 300 rpm, and the plate was washed three times with 300 μL of TBST. Anti-(H+L)IgG-A488 (1:500) (Invitrogen #A11013) was diluted in 0.5% BSA in TBST, and 100 μL was added to each well. The plate was then allowed to incubate at room temperature for 60 minutes at 300 rpm on orbital shaker. The liquid was removed and the plate was washed four times with 300 μL of TBST. […] Data was recorded and analyzed for $EC50$. […]

[10] = molecular target: T2, recombinant cynomolgus monkey (Macaca …); assay: ELISA on plate-coated recombinant cTfR1, fluorescent anti-(H+L) IgG-A488 detection, % normalized RFUs
Protocol: as §1

[11] = molecular target: T1, recombinant human TfR1 (transferrin …); assay: ELISA on hTfR1, unconjugated Fab, % normalized RFUs
[12] = molecular target: T1, recombinant human TfR1 (transferrin …); assay: Biacore, d0; TfR1 species not stated
[13] = molecular target: T2, recombinant cynomolgus monkey (Macaca …); assay: ELISA on cTfR1, unconjugated Fab, % normalized RFUs
[14] = molecular target: T2, recombinant cynomolgus monkey (Macaca …); assay: ELISA on plate-coated recombinant cTfR1, fluorescent anti-(H+L) IgG-A488 detection, % normalized RFUs
Protocol: (§2) To measure binding of humanized anti-TfR antibodies to TfR1, ELISAs were conducted. High binding, black, flat bottom, 96 well plates (Corning #3925) were first coated with 100 μL/well of recombinant huTfR1 at 1 μg/mL in PBS and incubated at 4° C. overnight. Wells were emptied and residual liquid was removed. Blocking was conducted by adding 200 μL of 1% BSA (w/w) in PBS to each well. Blocking was allowed to proceed for 2 hours at room temperature on a shaker at 30) rpm. After blocking, liquid was removed and wells were washed three times with 300 μL of TBST. Anti-TfR1 antibodies were then added in 0.5% BSA/TBST in triplicate in an 8 point serial dilution (dilution range 5 μg/mL-5 ng/mL). A positive control and isotype controls were also included on the ELISA plate. The plate was incubated at room temperature on an orbital shaker for 60 minutes at 300 rpm, and the plate was washed three times with 300 μL of TBST. Anti-(H+L)IgG-A488 (1:500) (Invitrogen #A11013) was diluted in 0.5% BSA in TBST, and 100 μL was added to each well. The plate was then allowed to incubate at room temperature for 60 minutes at 300 rpm on orbital shaker. The liquid was removed and the plate was washed four times with 300 μL of TBST. Absorbance was then measured at 495 nm excitation and […] (with a 15 nm bandwidth) on a plate reader. Data was recorded and analyzed for $EC50$. […]

[15] = molecular target: T1, recombinant human TfR1 (transferrin …); assay: ELISA on plate-coated recombinant hTfR1, fluorescent anti-(H+L) IgG-A488 detection, % normalized RFUs; remark: listed apart in the source
Protocol: To measure binding of humanized anti-TfR antibodies to TfR1, ELISAs were conducted. High binding, black, flat bottom, 96 well plates (Corning #3925) were first coated with 100 μL/well of recombinant huTfR1 at 1 μg/mL in PBS and incubated at 4° C. overnight. Wells were emptied and residual liquid was removed. Blocking was conducted by adding 200 μL of 1% BSA (w/w) in PBS to each well. Blocking was allowed to proceed for 2 hours at room temperature on a shaker at 30) rpm. After blocking, liquid was removed and wells were washed three times with 300 μL of TBST. Anti-TfR1 antibodies were then added in 0.5% BSA/TBST in triplicate in an 8 point serial dilution (dilution range 5 μg/mL-5 ng/mL). A positive control and isotype controls were also included on the ELISA plate. The plate was incubated at room temperature on an orbital shaker for 60 minutes at 300 rpm, and the plate was washed three times with 300 μL of TBST. Anti-(H+L)IgG-A488 (1:500) (Invitrogen #A11013) was diluted in 0.5% BSA in TBST, and 100 μL was added to each well. The plate was then allowed to incubate at room temperature for 60 minutes at 300 rpm on orbital shaker. The liquid was removed and the plate was washed four times with 300 μL of TBST. Absorbance was then measured at 495 nm excitation and […] (with a 15 nm bandwidth) on a plate reader. Data was recorded and analyzed for $EC50$. […] ELISA measurements were conducted using cynomolgus monkey (Macaca fascicularis) TfR1 (cTfR1) according to the same protocol described above for hTfR1, and results are shown in FIGS. 9B, 9D, and 9F.

[16] = molecular target: T2, recombinant cynomolgus monkey (Macaca …); assay: ELISA on cTfR1, unconjugated Fab, % normalized RFUs
[17] = molecular target: T1, recombinant human TfR1 (transferrin …); assay: ELISA on hTfR1, unconjugated Fab, % normalized RFUs; remark: listed apart in the source
[18] = molecular target: T2, recombinant cynomolgus monkey (Macaca …); assay: ELISA on cTfR1, unconjugated Fab, % normalized RFUs
[19] = molecular target: T1, recombinant human TfR1 (transferrin …); assay: ELISA on hTfR1, unconjugated Fab, % normalized RFUs; remark: listed apart in the source
[20] = molecular target: T2, recombinant cynomolgus monkey (Macaca …); assay: ELISA on plate-coated recombinant cTfR1 (target per paragraph 617), fluorescent anti-(H+L) IgG-A488 detection, % normalized RFUs
Protocol: as §2

B1: humanized anti-TfR Fab 3M12 VH3/Vκ2 (Fab, V domains shown)
VH: QVQLQESGPGLVKPSQTLSLTCSVTGYSITSGYYWNWIRQPPGKGLEWMGYITFDGANNYNPSLKNRVSISRDTSKNQFSLKLSSVTAEDTATYYCTRSSYDYDVLDYWGQGTTVTVSS
VL: DIQMTQSPSSLSASVGDRVTITCRASQDISNFLNWYQQKPGQPVKLLIYYTSRLHSGVPSRFSGSGSGTDFTLTISSLQPEDFATYFCQQGHTLPYTFGQGTKLEIKR
notes: also called 3M12 (VH3/Vk2)
For B1, the Binding affinity [1] was 0.8 nM, the Binding affinity [2] was 9.9 nM and the Kd [3] was 0.567 nM. The Kd [4] was 0.395 nM, the koff [4] was 0.000104 s⁻¹ and the kon [4] was 264000 M⁻¹ s⁻¹. It also gave an EC50 [5] of 0.8 nM, an EC50 [6] of 9.9 nM and a Binding affinity [7] of 0.98 nM. It also gave a Binding affinity [8] of 19.5 nM, an EC50 [9] of 7.2 nM and an EC50 [10] of 25.5 nM. It also gave an EC50 [11] of 7.2 nM, a Kd [12] of 0.395 nM and an EC50 [13] of 25.5 nM.

B2: humanized anti-TfR Fab 3A4 VH3 (N54T)/Vκ4 (Fab, V domains shown)
VH: EVQLVQSGSELKKPGASVKVSCTASGFNIKDDYMYWVRQPPGKGLEWIGWIDPETGDTEYASKFQDRVTVTADTSTNTAYMELSSLRSEDTAVYYCTLWLRRGLDYWGQGTLVTVSS
VL: DIVMTQSPLSLPVTPGEPASISCRSSKSLLHSNGYTYLFWFQQRPGQSPRLLIYRMSNLASGVPDRFSGSGSGTDFTLKISRVEAEDVGVYYCMQHLEYPFTFGGGTKVEIKR
notes: also called 3A4 (VH3-N54T/Vk4)
For B2, the Binding affinity [1] was 2.6 nM, the Binding affinity [2] was 156 nM and the Kd [3] was 3.01 nM. It also gave an EC50 [14] greater than 100 nM, an EC50 [15] of 2.3 nM and an EC50 [16] greater than 100 nM. It also gave a Kd [4] of 3.09 nM, a koff [4] of 0.000705 s⁻¹ and a kon [4] of 228000 M⁻¹ s⁻¹. It also gave an EC50 [5] of 2.6 nM, an EC50 [6] of 156 nM and a Binding affinity [7] of 0.4 nM. The Binding affinity [8] was 128 nM, the EC50 [17] was 2.3 nM and the Kd [12] was 3.09 nM.

B3: humanized anti-TfR Fab 5H12 VH5 (C33Y)/Vκ4 (Fab, V domains shown)
VH: QVQLVQSGAEVKKPGASVKVSCKASGYSFTDYYINWVRQAPGQGLEWMGWIYPGSGNTRYSERFKGRVTITRDTSASTAYMELSSLRSEDTAVYYCAREDYYPYHGMDYWGQGTLVTVSS
VL: DIVMTQSPDSLAVSLGERATINCRASESVDGYDNSFMHWYQQKPGQPPKLLIFRASNLESGVPDRFSGSGSGTDFTLTISSLQAEDVAVYYCQQSSEDPWTFGQGTKLEIKR
notes: also called 5H12 (VH5-C33Y/Vk4)
B3 was tested, and the Binding affinity [1] was 2.8 nM, the Binding affinity [2] was 3.3 nM and the Kd [3] was 1.33 nM. It also gave an EC50 [18] of 3.4 nM, an EC50 [15] greater than 100 nM and an EC50 [19] greater than 100 nM. For the same binder, the Kd [4] was 0.626 nM, the koff [4] was 0.000117 s⁻¹ and the kon [4] was 186000 M⁻¹ s⁻¹. It also gave an EC50 [5] of 2.8 nM, an EC50 [6] of 3.3 nM and a Binding affinity [7] of 1730 nM. For the same binder, the Binding affinity [8] was 0.26 nM, the EC50 [20] was 3.4 nM and the Kd [12] was 0.626 nM.

B4: humanized anti-TfR Fab 5H12 VH5 (C33Y)/Vκ3 (Fab, V domains shown)
VH: QVQLVQSGAEVKKPGASVKVSCKASGYSFTDYYINWVRQAPGQGLEWMGWIYPGSGNTRYSERFKGRVTITRDTSASTAYMELSSLRSEDTAVYYCAREDYYPYHGMDYWGQGTLVTVSS
VL: DIVLTQSPDSLAVSLGERATINCRASESVDGYDNSFMHWYQQKPGQPPKLLIFRASNLESGVPDRFSGSGSRTDFTLTISSLQAEDVAVYYCQQSSEDPWTFGQGTKLEIKR
notes: also called 5H12 (VH5-C33Y/Vk3)
B4 showed a Binding affinity [1] of 6.3 nM, a Binding affinity [2] of 2.1 nM and a Kd [3] of 1.07 nM. For the same binder, the EC50 [18] was 2 nM, the EC50 [15] was greater than 100 nM and the EC50 [19] was greater than 100 nM. It also gave a Kd [4] of 0.627 nM, a koff [4] of 0.000122 s⁻¹ and a kon [4] of 195000 M⁻¹ s⁻¹. The EC50 [5] was 6.3 nM, the EC50 [6] was 2.1 nM and the Binding affinity [7] was 71.9 nM. It also gave a Binding affinity [8] of 0.69 nM, an EC50 [20] of 2 nM and a Kd [12] of 0.627 nM.
